# Several values for one entry are separate records, joined by “and”; a condition that tells them apart may be missing. Identical values can stand only once.
# B1: L130R|G133D, Q6VS32 (parent)
# chain: CSSGGGGVAADIGAGLADALTAPLDHKDKSLQSLTLDQSVRKNEKLKLAAQGAEKTYGNGDSLNTGKLKNDKVSRFDFIRQIEVDGQLITLESGEFQIYKQDHSAVVALQIEKINNPDKIDSLINQRSFLVSGLGGEHTAFNQLPSGKAEYHGKAFSSDDPNGRLHYSIDFTKKQGYGRIEHLKTPEQNVELASAELKADEKSHAVILGDTRYGGEEKGTYHLALFGDRAQEIAGSATVKIREKVHEIGIAGKQ
# Variants of: B1
# Conditions: Neisseria meningitidis; pH 7; Thermal; DSC; PBS; whole UniProt chain shown
row,Variant,unfolding enthalpy (calorimetric)
1,CSSGGGGVAADIGAGLADALTAPLDHKDKSLQSLTLDQSVRKNEKLKLAAQGAEKTYGNGDSLNTGKLKNDKVSRFDFIRQIEVDGQLITLESGEFQIYKQDHSAVVALQIEKINNPDKIDSLINQRSFRVSDLGGEHTAFNQLPSGKAEYHGKAFSSDDPNGRLHYSIDFTKKQGYGRIEHLKTPEQNVELASAELKADEKSHAVILGDTRYGGEEKGTYHLALFGDRAQEIAGSATVKIREKVHEIGIAGKQ [L130R G133D],56.3 kcal/mol and 94 kcal/mol
2,CSSGGGGVAADIGAGLADALTAPLDHKDKSLQSLTLDQSVRKNEKLKLAAQGAEKTYGNGDSLNTGKLKNDKVSRFDFIRQIEVDGQLITLESGEFQIYKQDHSAVVALQIEKINNPDKIDSLINQRSFLVSDLGGEHTAFNQLPSGKAEYHGKAFSSDDPNGRLHYSIDFTKKQGYGRIEHLKTPEQNVELASAELKADEKSHAVILGDTRYGGEEKGTYHLALFGDRAQEIAGSATVKIREKVHEIGIAGKQ [G133D],96.8 kcal/mol and 96.1 kcal/mol

# — FireProtDB (doi:10.1073/pnas.1507829112)
